{
  "source": "patent US20070111222",
  "tested_on": "T1, fluorogenic peptide CAGSGSGPR-AMC (AMC=7-amino-4-methyl-coumarin)",
  "T1 sequence": "CAGSGSGPR",
  "data": [
    {"substance": "trypsin", "values": [
      {"measurement": "release of fluorescent AMC (cleavage of the immobilized fluorogenic peptide)", "result": "Adding trypsin to these disks results in the release of fluorescent AMC"}
    ]}
  ]
}
